Measurements reported in patent US7338658.

How the values were obtained:
[1] = molecular target: baboon CD4 on lymphocytes (baboon); test: flow cytometry on lymphocytes of different species
[2] = molecular target: Fc receptors on human cells (γIFN-induced monocytes, γIFN-induced THP-1 cells, ADCC effector cells); test: cell-based or functional assay
[3] = molecular target: human CD4 on cells (human) (UniProt P01730); test: cell-based or functional assay

| Substance | fold lower reactivity than human [1] [fold] | ADCC, concentration at maximal cytotoxicity [2] [µg/mL] | ADCC, total specific lysis of SupT1 cells [2] [%] | ED50 of cell-cell adhesion (γIFN activated fresh monocytes and CD4+ SupT1 T cells) [2] [µg/mL] | IL-2 Production (IC50), three way MLR [3] [µg/mL] | Proliferation (IC50), three way MLR [3] [µg/mL] |
| --- | --- | --- | --- | --- | --- | --- |
| CE9.1 monkey/human chimeric anti-CD4 monoclonal antibody (ATCC No. 69030 construct) (from UniProt P01857 1-330) | 10 | 6 | 50 | 0.02 |  |  |
| CE9γ4λK (antibody) |  |  |  |  | 0.02 | 0.02 |
